Data taken from patent US11015206B2, “Compositions and methods comprising sequences having hydroxyphenylpyruvate dioxygenase (HPPD) activity” (PIONEER HI-BRED INTERNATIONAL, INC., priority 2014, dated 2021).
Positions count from the first letter of the chain named.

B1: P056028-B-07 (protein)
chain: MGPTPTATAAGAAVAAASAAEQAAFRLVGHRNFVRFNPRSDRFQTLAFHHVELWCADAASAAGRFSFALGVPLAARSDLSTGNSAHASLLLRSGSLSLLFTAPYAHGADAATAALPSFSAAAARRFAADHGLAVRAVALRVADAEDAFRASVAAGARPAFGPVDLGRGFRLAEVELYGDVVLRYVSYPDGAAGEPFLPGFEGVASQGAADYGLSRFDHIVGNVPELAPAAAYMAGFTGFHEFAEFTTEDVGTTESGLNSMALANNSENVLLPLNEPVHGTKRRSQIQTFLDHHGGPGVQHIALASDDVLRTLREMRARSAMGGFEFLPPPLSDYYDGVRRCAGDVLTEAQINECQELGVMVDRDDEGVLLQIFTKPVGDRPTFFIELIQRIGCMEKDEKGQEYQKGGCGGFGKGNFGQLFKSIEDYEKSLEAKQAAAAATAQGS
modifications: Zea mays variant form created by artificial means.
B2: P056028-C-08 (protein)
chain: B1 chain with L182M, Q206P, R340K, I385L, L387I, E431D
modifications: Zea mays variant form created by artificial means.
B3: P056028-C-09 (protein)
chain: B1 chain with Q206P, S214N, I385L, L387I
modifications: Zea mays variant form created by artificial means.
B4: P056028-C-11 (protein)
chain: B1 chain with Q206P, Y211L, R340K, I385L
modifications: Zea mays variant form created by artificial means.
B5: P056028-C-06 (protein)
chain: B1 chain with A191G, Q206S, S214N, R340K, E356R, I385V, L387I
modifications: Zea mays variant form created by artificial means.
B6: P056028-D-10 (protein)
chain: B1 chain with N265D, I385L, L387I
modifications: Zea mays variant form created by artificial means.
B7: P056028-C-04 (protein)
chain: B1 chain with G107D, A191G, Q206S, H278L, I385L, L387I, G417S, Q434R
modifications: Zea mays variant form created by artificial means.
B8: P056028-C-10 (protein)
chain: B1 chain with P188S, Q206P, R340K, I385L, L387I
modifications: Zea mays variant form created by artificial means.
B9: P056028-D-01 (protein)
chain: B1 chain with A122T, E356K, I385L, L387I
modifications: Zea mays variant form created by artificial means.
B10: P056028-C-02 (protein)
chain: B1 chain with Q206P, Y211L, E356K, I385L, L387I
modifications: Zea mays variant form created by artificial means.
B11: P056028-B-08 (protein)
chain: B1 chain with Q206P, R340K, I385L, L387I
modifications: Zea mays variant form created by artificial means.
B12: P056028-C-03 (protein)
chain: B1 chain with F67Y, Q206P, R340K
modifications: Zea mays variant form created by artificial means.
B13: P056028-D-11 (protein)
chain: B1 chain with A142T, A191G, Q206P, R340K, I385L, L387I
modifications: Zea mays variant form created by artificial means.

Key:
Format in all cases: biochemical, Z. mays
[1] = test system: 4-hydroxyphenylpyruvate dioxygenase (HPPD); experiment: ON rate ratio: HPPD reaction rate with vs without inhibitor in the 70 to 90 second interval; settings: Table 7; tembotrione; combinatorial variants
Description: (§1) Higher KD (reduced affinity or increased insensitivity) can be attained with a numerically smaller ON rate, a larger OFF rate or both. To detect and quantify changes in kON and kOFF, observations of the time course of an HPPD reaction as inhibitor binds to and inactivates the enzyme (kON), or is released from a pre-formed enzyme-inhibitor complex (kOFF) were used, as shown in FIGS. 13A and 13B. In practice, a quantitative indicator of kON was obtained by monitoring the time courses of HPPD reactions containing 60 or 120 nM HPPD and 100 μM HPP in the presence and absence of 4 μM inhibitor (e.g., mesotrione or tembotrione). The ratio of the reaction rate with inhibitor to that without inhibitor during the 70 to 90 second interval of the reaction was termed the “ON rate ratio”. The smaller the actual kON, the more slowly the HPPD reaction decelerates and the higher the value is for the ON rate ratio. FIGS. 13A and 13B illustrate the contrasting reaction velocity in the 70-90 sec interval for maize wild-type HPPD (FIG. 13A) versus an improved variant (SEQ ID NO:78) (FIG. 13B).

[2] = test system: 4-hydroxyphenylpyruvate dioxygenase (HPPD); experiment: OFF rate ratio: release of inhibitor from pre-formed enzyme-inhibitor complex; settings: Table 7; tembotrione; combinatorial variants
Experimental: A quantitative indicator of kOFF can be obtained by observing the time course of an HPPD reaction as inhibitor is released from a pre-formed enzyme-inhibitor complex. HPPD and inhibitor were incubated together at concentrations of 7.2 and 8 μM, respectively. Incubations with the same concentrations of enzyme but no inhibitor were done in parallel. After 1 hr at room temperature, 5 to 10 μl of the enzyme-inhibitor complex was dispensed into the wells of the assay plate. Reactions were started with the addition of 290 to 295 μl of 25 mM Hepes, pH 7, 2 mM ascorbate, 10 μM FeSO4, 100 μM HPP and 50 nM HGD. The reactions were monitored at 320 nm for 12 min. Reaction velocity accelerates as inhibitor is released from the enzyme until a steady state is reached, during which the reaction velocity is constant. The ratio of the steady state rate in mixtures containing herbicidal inhibitor to the initial velocity of mixtures lacking inhibitor is termed the “OFF rate ratio”.
Another parameter to record is the time span required for the reactions with inhibitor to reach the steady state. FIGS. 13C and 13D illustrate the contrasting time span in which maize wild-type HPPD (FIG. 13C) and an improved variant (SEQ ID NO:78) (FIG. 13D) dissociated from mesotrione, as indicated by the accelerating reaction rates. The plateau of absorbance is due to exhaustion of the substrate. With the improved variant, not only was the steady state attained in a shorter time span (80 sec for the variant versus 280 sec for wild type), the velocity attained was twice as high as with wild type, though the enzymes were present at the same concentration (240 nM). This is because a larger fraction of the variant enzyme is free of inhibitor compared to the wild-type enzyme, and the kcat for both is nearly the same, about 220 min^−1.

[3] = test system: 4-hydroxyphenylpyruvate dioxygenase (HPPD); experiment: Insensitivity parameter (ON × OFF) and trait fitness (ON × OFF × kcat/KM or × kcat); set-up: key to ON × OFF / Insensitivity, mesotrione, ON × OFF / Insensitivity, tembotrione, ON × OFF / Insensitivity, topramezone, ON × OFF / Insensitivity, sulcotrione, ON × OFF / Insensitivity, isoxaflutole (DKN), ON × OFF: insensitivity = ON rate ratio × OFF rate ratio (surrogate for KD)
Description: Because substrate and inhibitors bind in the same site, the high concentration of substrate present may competitively trap the inhibitor and prevent it from binding again. To be sure that improvement in ON rates is being taken into account, the ON and OFF rate ratios were multiplied, creating an “insensitivity parameter” that is a surrogate for KD. KD is expressed as kOFF/kON, but because the ON rate ratio is an inverse parameter (the higher the value of ON rate ratio, the lower the value of the represented phenomenon, kON), it is appropriate to multiply ON and OFF rate ratios rather then divide OFF rate ratio by ON rate ratio. Another parameter, which quantifies the combined catalytic and insensitivity properties of the enzyme is kcat/KM×ON rate ratio×OFF rate ratio, and is termed “trait fitness”. This parameter is intended to have a meaning similar to the commonly used expression kcat/KM×Ki.

[4] = test system: 4-hydroxyphenylpyruvate dioxygenase (HPPD); experiment: Estimate of kcat from initial rate at saturating hydroxyphenylpyruvate without inhibitor (ON rate ratio assay)
Description: as §1
Thirty nine variants were desensitized to tembotrione compared with the backbone enzyme, Round 7, variant 9070 (SEQ ID NO:2) and all were desensitized compared with maize wild type HPPD (SEQ ID NO:1). Because the assay for ON rate ratio includes an initial rate measurement at saturating hydroxyphenylpyruvate without inhibitor and with known enzyme concentration, an estimate of kcat was available. Taking into account kcat and insensitivity parameters, 30 variants were selected for measurement of substrate saturation kinetic parameters and re-evaluation of insensitivity to tembotrione. The kinetic and insensitivity parameters were determined as described in Example 1, and were multiplied to generate the “trait fitness” parameter. The complete list of variants, i.e., of selected single substitutions in SEQ ID NO:2, analyzed with multiple inhibitors and the results obtained are shown in Table 6. The same set of 30 variants were evaluated for insensitivity to mesotrione, sulcotrione, isoxaflutole (its active diketonitrile form, abbreviated DKN in Table 6) and topramezone.

[5] = Table 7, tembotrione, combinatorial variants
[6] = Table 7, combinatorial variants

Molecule | ON rate ratio [1] | OFF rate ratio [2] | ON × OFF ([3]; Megatable 3, shuffled variants) | ON × OFF × kcat ([3]; Megatable 3, shuffled variants) | ON × OFF [3, 5] | ON × OFF × kcat [3, 5] | kcat ([4]; Megatable 3, shuffled variants) [s⁻¹] | kcat [4, 6] [s⁻¹]
B1 | 0.788 | 0.389 | 0.307 | 2.83 | 0.307 | 2.83 | 0.153 | 0.153
B2 | 0.712 | 0.381 | 0.271 | 3.65 | 0.271 | 3.65 | 0.225 | 0.225
B3 | 0.706 | 0.314 | 0.222 | 3.76 | 0.222 | 3.76 | 0.283 | 0.283
B4 | 0.731 | 0.293 | 0.214 | 2.64 | 0.214 | 2.64 | 0.205 | 0.205
B5 | 0.742 | 0.351 | 0.261 | 2.77 | 0.261 | 2.77 | 0.177 | 0.177
B6 | 0.670 | 0.253 | 0.170 | 3.07 | 0.170 | 3.07 | 0.302 | 0.302
B7 | 0.727 | 0.322 | 0.234 | 5.32 | 0.234 | 5.32 | 0.378 | 0.378
B8 | 0.699 | 0.356 | 0.249 | 3.63 | 0.249 | 3.63 | 0.243 | 0.243
B9 | 0.728 | 0.348 | 0.254 | 5.39 | 0.254 | 5.39 | 0.355 | 0.355
B10 | 0.717 | 0.379 | 0.272 | 5.11 | 0.272 | 5.11 | 0.313 | 0.313
B11 | 0.681 | 0.325 | 0.221 | 3.44 | 0.221 | 3.44 | 0.258 | 0.258
B12 | 0.739 | 0.356 | 0.263 | 3.62 | 0.263 | 3.62 | 0.228 | 0.228
B13 | 0.719 | 0.261 | 0.188 | 3.21 | 0.188 | 3.21 | 0.285 | 0.285
